# PMC6120343 (Nature, 2018)
# Changes are numbered by the printed parent chain. Names and notes keep the numbering of the source.
# B1: DRP1 G362D, disease-associated mutant, full length (enzyme)
# chain: MEALIPVINKLQDVFNTVGADIIQLPQIVVVGTQSSGKSSVLESLVGRDLLPRGTGIVTRRPLILQLVHVSQEDKRKTTGEENGVEAEEWGKFLHTKNKLYTDFDEIRQEIENETERISGNNKGVSPEPIHLKIFSPNVVNLTLVDLPGMTKVPVGDQPKDIELQIRELILRFISNPNSIILAVTAANTDMATSEALKISREVDPDGRRTLAVITKLDLMDAGTDAMDVLMGRVIPVKLGIIGVVNRSQLDINNKKSVTDSIRDEYAFLQKKYPSLANRNGTKYLARTLNRLLMHHIRDCLPELKTRINVLAAQYQSLLNSYGEPVDDKSATLLQLITKFATEYCNTIEGTAKYIETSELCDGARICYIFHETFGRTLESVDPLGGLNTIDILTAIRNATGPRPALFVPEVSFELLVKRQIKRLEEPSLRCVELVHEEMQRIIQHCSNYSTQELLRFPKLHDAIVEVVTCLLRKRLPVTNEMVHNLVAIELAYINTKHPDFADACGLMNNNIEEQRRNRLARELPSAVSRDKLIQDSRRETKNVASGGGGVGDGVQEPTTGNWRGMLKTSKAEELLAEEKSKPIPIMPASPQKGHAVNLLDVPVPVARKLSAREQRDCEVIERLIKSYFLIVRKNIQDSVPKAVMHFLVNHVKDTLQSELVGQLYKSSLLDDLLTESEDMAQRRKEAADMLKALQGASQIIAEIRETHLW
# B2: DRP1 S611D phosphomimetic mutant, full length (enzyme)
# chain: B1 chain with D362G, S611D
# B3: MID49_(126-454), soluble truncation of Mitochondrial Dynamics 49 without the N-terminal transmembrane anchor (domain or fragment)
# chain: TLQERLLAFERDRVTIPAAQVALAKQLAGDIALELQAYFRSKFPELPFGAFVPGGPLYDGLQAGAADHVRLLVPLVLEPGLWSLVPGVDTVARDPRCWAVRRTQLEFCPRGSSPWDRFLVGGYLSSRVLLELLRKALAASVNWPAIGSLLGCLIRPSMASEELLLEVQHERLELTVAVLVAVPGVDADDRLLLAWPLEGLAGNLWLQDLYPVEAARLRALDDHDAGTRRRLLLLLCAVCRGCSALGQLGRGHLTQVVLRLGEDNVDWTEEALGERFLQALELLIGSLEQASLPCHFNPSVNLFSSLREEEIDDIGYALYSGLQEPEGLL
# How the values were obtained:
# SEC = molecular target: the molecule itself; experiment: SEC
# [1] = molecular target: the molecule itself; experiment: cryo-EM 2D class averages
# [2] = molecular target: the molecule itself; experiment: assembly and coassembly seen by negative stain electron microscopy
# [3] = molecular target: DRP1 E116R mutant, full length (human, UniProt O00429-3 1-710, E116R); experiment: as above
binder,measurement,setting,value
B1,stoichiometry N,SEC,2
same,stoichiometry N,[1],24 chains (12 dimers)
B2,binding result,[2],binds
B3,binding result,[3],binds
